Measured values taken from publication PMC6983367 (Proceedings of the National Academy of Sciences of the …, 2020).
Blank lines part the entries; values can stand above or below the binder they belong to.

Biological target: bovine mitochondrial F1-ATPase β subunit (His-tagged) (bovine, UniProt P00829 47-528)
Test: dilution and ultrafiltration

Chain of bovine mitochondrial F1-ATPase β subunit (His-tagged) (P00829 47-528): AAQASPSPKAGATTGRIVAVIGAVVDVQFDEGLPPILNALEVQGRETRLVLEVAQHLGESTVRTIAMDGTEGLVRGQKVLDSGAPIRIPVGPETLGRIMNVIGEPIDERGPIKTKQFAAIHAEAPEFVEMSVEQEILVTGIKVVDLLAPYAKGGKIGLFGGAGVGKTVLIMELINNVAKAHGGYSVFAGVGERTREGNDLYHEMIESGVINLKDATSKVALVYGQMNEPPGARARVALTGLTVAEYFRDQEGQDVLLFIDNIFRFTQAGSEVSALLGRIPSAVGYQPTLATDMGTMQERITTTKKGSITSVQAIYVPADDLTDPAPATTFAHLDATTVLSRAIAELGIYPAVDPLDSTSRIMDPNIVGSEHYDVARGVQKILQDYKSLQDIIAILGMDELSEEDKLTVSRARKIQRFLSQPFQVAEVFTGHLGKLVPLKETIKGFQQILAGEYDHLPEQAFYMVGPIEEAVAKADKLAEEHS

binding result: binds
B1: bovine mitochondrial F1-ATPase γ subunit (γA99C, γS191C) (natural protein)
chain: ATLKDITRRLKSIKNIQKITKSMKMVAAAKYARAERELKPARVYGVGSLALYEKADIKTPEDKKKHLIIGVSSDRGLCGAIHSSVAKQMKSEAANLAACGKEVKIIGVGDKIRSILHRTHSDQFLVTFKEVGRRPPTFGDASVIALELLNSGYEFDEGSIIFNRFRSVISYKTEEKPIFSLDTISSAESMCIYDDIDADVLRNYQEYSLANIIYYSLKESTTSEQSARMTAMDNASKNASEMIDKLTLTFNRTRQAVITKELIEIISGAAALD

binding result: binds
B2: bovine mitochondrial F1-ATPase ε subunit (natural protein)
chain: MVAYWRQAGLSYIRYSQICAKAVRDALKTEFKANAMKTSGSTIKIVKVKKE
